Measured values as given in patent US20190185537A1 (AstraZeneca / MedImmune, published 2019).
Several values for one entry are separate records, joined by “and”; a condition that tells them apart may be missing. Equal values may be shown once. Numbered stars: 1 amine (or outer) side, 2 acyl side, 3 side chain; on linkers, the order of the positions; unused ones are H or OH. Side chains are listed from the residue outwards. Ends that are not written are not given here. * marks the point of attachment. γGlu = O=C(O)[C@H](CCC(=O)[*:2])N[*:1]; Palmitoyl = CCCCCCCCCCCCCCCC(=O)*

T1: human glucose-dependent insulinotropic peptide (gastric inhibitory polypeptide) receptor (human) (UniProt P48546)
T1 sequence (looked up): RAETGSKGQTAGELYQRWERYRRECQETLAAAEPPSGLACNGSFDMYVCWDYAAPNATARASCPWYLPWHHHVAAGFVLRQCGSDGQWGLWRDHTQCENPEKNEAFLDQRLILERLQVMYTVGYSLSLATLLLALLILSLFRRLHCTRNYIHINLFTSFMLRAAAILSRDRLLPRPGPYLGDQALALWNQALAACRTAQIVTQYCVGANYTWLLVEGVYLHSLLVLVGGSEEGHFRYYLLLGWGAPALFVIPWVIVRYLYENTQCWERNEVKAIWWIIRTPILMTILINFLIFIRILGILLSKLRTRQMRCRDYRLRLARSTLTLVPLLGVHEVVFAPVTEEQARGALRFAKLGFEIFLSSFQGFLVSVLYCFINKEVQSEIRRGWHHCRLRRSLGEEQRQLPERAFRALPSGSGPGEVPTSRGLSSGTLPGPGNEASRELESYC


Columns and labels:
Experiment in all cases: cell-based or functional assay
human glucagon receptor = human glucagon receptor (human, UniProt P47871 26-477)
human glucagon receptor, sequence (P47871 26-477): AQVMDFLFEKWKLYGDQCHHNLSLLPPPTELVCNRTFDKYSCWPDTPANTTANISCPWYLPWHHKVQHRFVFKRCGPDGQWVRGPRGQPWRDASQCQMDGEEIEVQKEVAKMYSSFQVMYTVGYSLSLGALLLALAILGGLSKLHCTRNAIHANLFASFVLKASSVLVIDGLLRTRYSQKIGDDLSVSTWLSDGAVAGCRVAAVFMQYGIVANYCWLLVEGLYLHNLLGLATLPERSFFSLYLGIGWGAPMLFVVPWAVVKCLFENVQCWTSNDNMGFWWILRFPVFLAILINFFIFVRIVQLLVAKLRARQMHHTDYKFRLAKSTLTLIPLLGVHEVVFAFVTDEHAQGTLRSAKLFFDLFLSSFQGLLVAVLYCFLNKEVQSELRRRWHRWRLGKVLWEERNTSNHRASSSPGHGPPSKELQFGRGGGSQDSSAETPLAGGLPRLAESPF

human GLP-1 receptor = human GLP-1 receptor (human, UniProt P43220 24-463)
human GLP-1 receptor, sequence (P43220 24-463): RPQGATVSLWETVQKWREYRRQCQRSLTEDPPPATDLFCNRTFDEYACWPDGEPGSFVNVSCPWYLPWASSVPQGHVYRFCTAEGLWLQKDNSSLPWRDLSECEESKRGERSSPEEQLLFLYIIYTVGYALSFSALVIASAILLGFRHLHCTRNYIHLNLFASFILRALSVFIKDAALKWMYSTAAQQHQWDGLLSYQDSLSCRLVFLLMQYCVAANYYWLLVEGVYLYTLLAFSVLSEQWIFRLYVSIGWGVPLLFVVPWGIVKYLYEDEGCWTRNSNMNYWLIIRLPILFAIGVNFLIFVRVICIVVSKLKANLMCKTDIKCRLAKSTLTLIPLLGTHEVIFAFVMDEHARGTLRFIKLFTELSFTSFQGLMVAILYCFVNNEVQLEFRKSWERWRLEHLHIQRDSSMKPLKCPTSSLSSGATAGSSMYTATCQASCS

[1] = target: T1, human glucose-dependent insulinotropic peptide (gastric inhibitory polypeptide) receptor (human)

| Binder | cAMP EC50 (assay 1) (human glucagon receptor) | cAMP EC50 (assay 1) (human GLP-1 receptor) | cAMP EC50 (assay 1) [1] |
| --- | --- | --- | --- |
| HSQGTFTSDYSKYLDSK([γGlu-Palmitoyl])RARDFVEWLVAGG-NH2 (N-terminus assumed; SMILES CCCCCCCCCCCCCCCC(=O)N[C@@H](CCC(=O)NCCCC[C@H](NC(=O)[C@H](CO)NC(=O)[C@H](CC(=O)O)NC(=O)[C@H](CC(C)C)NC(=O)[C@H](Cc1ccc(O)cc1)NC(=O)[C@H](CCCCN)NC(=O)[C@H](CO)NC(=O)[C@H](Cc1ccc(O)cc1)NC(=O)[C@H](CC(=O)O)NC(=O)[C@H](CO)NC(=O)[C@@H](NC(=O)[C@H](Cc1ccccc1)NC(=O)[C@@H](NC(=O)CNC(=O)[C@H](CCC(N)=O)NC(=O)[C@H](CO)NC(=O)[C@@H](N)Cc1c[nH]cn1)[C@@H](C)O)[C@@H](C)O)C(=O)N[C@@H](CCCNC(=N)N)C(=O)N[C@@H](C)C(=O)N[C@@H](CCCNC(=N)N)C(=O)N[C@@H](CC(=O)O)C(=O)N[C@@H](Cc1ccccc1)C(=O)N[C@H](C(=O)N[C@@H](CCC(=O)O)C(=O)N[C@@H](Cc1c[nH]c2ccccc12)C(=O)N[C@@H](CC(C)C)C(=O)N[C@H](C(=O)N[C@@H](C)C(=O)NCC(=O)NCC(N)=O)C(C)C)C(C)C)C(=O)O) [g776] | 0.00465 nM | 70.2 pM | 47.9 nM |
| HSQGTFTSDYSEYLDSK([γGlu-Palmitoyl])RARDFVEWLVAGG-NH2 (N-terminus assumed; SMILES CCCCCCCCCCCCCCCC(=O)N[C@@H](CCC(=O)NCCCC[C@H](NC(=O)[C@H](CO)NC(=O)[C@H](CC(=O)O)NC(=O)[C@H](CC(C)C)NC(=O)[C@H](Cc1ccc(O)cc1)NC(=O)[C@H](CCC(=O)O)NC(=O)[C@H](CO)NC(=O)[C@H](Cc1ccc(O)cc1)NC(=O)[C@H](CC(=O)O)NC(=O)[C@H](CO)NC(=O)[C@@H](NC(=O)[C@H](Cc1ccccc1)NC(=O)[C@@H](NC(=O)CNC(=O)[C@H](CCC(N)=O)NC(=O)[C@H](CO)NC(=O)[C@@H](N)Cc1c[nH]cn1)[C@@H](C)O)[C@@H](C)O)C(=O)N[C@@H](CCCNC(=N)N)C(=O)N[C@@H](C)C(=O)N[C@@H](CCCNC(=N)N)C(=O)N[C@@H](CC(=O)O)C(=O)N[C@@H](Cc1ccccc1)C(=O)N[C@H](C(=O)N[C@@H](CCC(=O)O)C(=O)N[C@@H](Cc1c[nH]c2ccccc12)C(=O)N[C@@H](CC(C)C)C(=O)N[C@H](C(=O)N[C@@H](C)C(=O)NCC(=O)NCC(N)=O)C(C)C)C(C)C)C(=O)O) [g835] | 0.424 nM | 191 pM | 97.2 nM |
| HGQGTFTSDYSKYLDSK([γGlu-Palmitoyl])RARDFVEWLVAGG-NH2 (N-terminus assumed; SMILES CCCCCCCCCCCCCCCC(=O)N[C@@H](CCC(=O)NCCCC[C@H](NC(=O)[C@H](CO)NC(=O)[C@H](CC(=O)O)NC(=O)[C@H](CC(C)C)NC(=O)[C@H](Cc1ccc(O)cc1)NC(=O)[C@H](CCCCN)NC(=O)[C@H](CO)NC(=O)[C@H](Cc1ccc(O)cc1)NC(=O)[C@H](CC(=O)O)NC(=O)[C@H](CO)NC(=O)[C@@H](NC(=O)[C@H](Cc1ccccc1)NC(=O)[C@@H](NC(=O)CNC(=O)[C@H](CCC(N)=O)NC(=O)CNC(=O)[C@@H](N)Cc1c[nH]cn1)[C@@H](C)O)[C@@H](C)O)C(=O)N[C@@H](CCCNC(=N)N)C(=O)N[C@@H](C)C(=O)N[C@@H](CCCNC(=N)N)C(=O)N[C@@H](CC(=O)O)C(=O)N[C@@H](Cc1ccccc1)C(=O)N[C@H](C(=O)N[C@@H](CCC(=O)O)C(=O)N[C@@H](Cc1c[nH]c2ccccc12)C(=O)N[C@@H](CC(C)C)C(=O)N[C@H](C(=O)N[C@@H](C)C(=O)NCC(=O)NCC(N)=O)C(C)C)C(C)C)C(=O)O) [g660] | 1.52 nM | 1060 pM | 332 nM |
| HSQGTFTSDYSKYLDSK([γGlu-Palmitoyl])RAQDFVEWLVAGG-NH2 (N-terminus assumed; SMILES CCCCCCCCCCCCCCCC(=O)N[C@@H](CCC(=O)NCCCC[C@H](NC(=O)[C@H](CO)NC(=O)[C@H](CC(=O)O)NC(=O)[C@H](CC(C)C)NC(=O)[C@H](Cc1ccc(O)cc1)NC(=O)[C@H](CCCCN)NC(=O)[C@H](CO)NC(=O)[C@H](Cc1ccc(O)cc1)NC(=O)[C@H](CC(=O)O)NC(=O)[C@H](CO)NC(=O)[C@@H](NC(=O)[C@H](Cc1ccccc1)NC(=O)[C@@H](NC(=O)CNC(=O)[C@H](CCC(N)=O)NC(=O)[C@H](CO)NC(=O)[C@@H](N)Cc1c[nH]cn1)[C@@H](C)O)[C@@H](C)O)C(=O)N[C@@H](CCCNC(=N)N)C(=O)N[C@@H](C)C(=O)N[C@@H](CCC(N)=O)C(=O)N[C@@H](CC(=O)O)C(=O)N[C@@H](Cc1ccccc1)C(=O)N[C@H](C(=O)N[C@@H](CCC(=O)O)C(=O)N[C@@H](Cc1c[nH]c2ccccc12)C(=O)N[C@@H](CC(C)C)C(=O)N[C@H](C(=O)N[C@@H](C)C(=O)NCC(=O)NCC(N)=O)C(C)C)C(C)C)C(=O)O) [g600] | 0.00547 nM | 66.6 pM | 82.8 nM and 124 nM |
| HGEGTFTSDYSKYLDSK([γGlu-Palmitoyl])RAEDFVEWLVAGG-NH2 (N-terminus assumed; SMILES CCCCCCCCCCCCCCCC(=O)N[C@@H](CCC(=O)NCCCC[C@H](NC(=O)[C@H](CO)NC(=O)[C@H](CC(=O)O)NC(=O)[C@H](CC(C)C)NC(=O)[C@H](Cc1ccc(O)cc1)NC(=O)[C@H](CCCCN)NC(=O)[C@H](CO)NC(=O)[C@H](Cc1ccc(O)cc1)NC(=O)[C@H](CC(=O)O)NC(=O)[C@H](CO)NC(=O)[C@@H](NC(=O)[C@H](Cc1ccccc1)NC(=O)[C@@H](NC(=O)CNC(=O)[C@H](CCC(=O)O)NC(=O)CNC(=O)[C@@H](N)Cc1c[nH]cn1)[C@@H](C)O)[C@@H](C)O)C(=O)N[C@@H](CCCNC(=N)N)C(=O)N[C@@H](C)C(=O)N[C@@H](CCC(=O)O)C(=O)N[C@@H](CC(=O)O)C(=O)N[C@@H](Cc1ccccc1)C(=O)N[C@H](C(=O)N[C@@H](CCC(=O)O)C(=O)N[C@@H](Cc1c[nH]c2ccccc12)C(=O)N[C@@H](CC(C)C)C(=O)N[C@H](C(=O)N[C@@H](C)C(=O)NCC(=O)NCC(N)=O)C(C)C)C(C)C)C(=O)O) [g681] | 39.9 nM | 283 pM | 124 nM |
| HSEGTFTSDYSKYLDSK([γGlu-Palmitoyl])RAEDFVEWLVAGG-NH2 (N-terminus assumed; SMILES CCCCCCCCCCCCCCCC(=O)N[C@@H](CCC(=O)NCCCC[C@H](NC(=O)[C@H](CO)NC(=O)[C@H](CC(=O)O)NC(=O)[C@H](CC(C)C)NC(=O)[C@H](Cc1ccc(O)cc1)NC(=O)[C@H](CCCCN)NC(=O)[C@H](CO)NC(=O)[C@H](Cc1ccc(O)cc1)NC(=O)[C@H](CC(=O)O)NC(=O)[C@H](CO)NC(=O)[C@@H](NC(=O)[C@H](Cc1ccccc1)NC(=O)[C@@H](NC(=O)CNC(=O)[C@H](CCC(=O)O)NC(=O)[C@H](CO)NC(=O)[C@@H](N)Cc1c[nH]cn1)[C@@H](C)O)[C@@H](C)O)C(=O)N[C@@H](CCCNC(=N)N)C(=O)N[C@@H](C)C(=O)N[C@@H](CCC(=O)O)C(=O)N[C@@H](CC(=O)O)C(=O)N[C@@H](Cc1ccccc1)C(=O)N[C@H](C(=O)N[C@@H](CCC(=O)O)C(=O)N[C@@H](Cc1c[nH]c2ccccc12)C(=O)N[C@@H](CC(C)C)C(=O)N[C@H](C(=O)N[C@@H](C)C(=O)NCC(=O)NCC(N)=O)C(C)C)C(C)C)C(=O)O) [g639] | 82.1 nM | 244 pM | 82.1 nM |
| HGQGTFTSDYSKYLDSK([γGlu-Palmitoyl])RAEDFVEWLVAGG-NH2 (N-terminus assumed; SMILES CCCCCCCCCCCCCCCC(=O)N[C@@H](CCC(=O)NCCCC[C@H](NC(=O)[C@H](CO)NC(=O)[C@H](CC(=O)O)NC(=O)[C@H](CC(C)C)NC(=O)[C@H](Cc1ccc(O)cc1)NC(=O)[C@H](CCCCN)NC(=O)[C@H](CO)NC(=O)[C@H](Cc1ccc(O)cc1)NC(=O)[C@H](CC(=O)O)NC(=O)[C@H](CO)NC(=O)[C@@H](NC(=O)[C@H](Cc1ccccc1)NC(=O)[C@@H](NC(=O)CNC(=O)[C@H](CCC(N)=O)NC(=O)CNC(=O)[C@@H](N)Cc1c[nH]cn1)[C@@H](C)O)[C@@H](C)O)C(=O)N[C@@H](CCCNC(=N)N)C(=O)N[C@@H](C)C(=O)N[C@@H](CCC(=O)O)C(=O)N[C@@H](CC(=O)O)C(=O)N[C@@H](Cc1ccccc1)C(=O)N[C@H](C(=O)N[C@@H](CCC(=O)O)C(=O)N[C@@H](Cc1c[nH]c2ccccc12)C(=O)N[C@@H](CC(C)C)C(=O)N[C@H](C(=O)N[C@@H](C)C(=O)NCC(=O)NCC(N)=O)C(C)C)C(C)C)C(=O)O) [g680] | 3.68 nM | 195 pM | 96.7 nM |
